From patent US20200317768A1 (published 2020)

What was measured:
Assay in all cases: SPR (BIACORE T200), 37 C, pH7.4, 1:1 fit; title prints avidity, by the text the affinity condition (capture 18.5 RU); pH 7.4
Human latent myostatin = biological target: T1, Human latent myostatin (human, UniProt O14793 25-266; O14793 267-375)
T1 construct: Biotinylated in the ELISAs; also called human myostatin latent form
T1 sequence 1: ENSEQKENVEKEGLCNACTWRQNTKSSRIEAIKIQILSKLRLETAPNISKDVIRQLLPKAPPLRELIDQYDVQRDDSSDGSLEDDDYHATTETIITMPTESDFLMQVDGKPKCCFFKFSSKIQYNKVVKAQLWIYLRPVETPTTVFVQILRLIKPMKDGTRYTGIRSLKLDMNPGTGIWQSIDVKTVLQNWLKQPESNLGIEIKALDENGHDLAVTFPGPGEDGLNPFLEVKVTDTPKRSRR
T1 sequence 2: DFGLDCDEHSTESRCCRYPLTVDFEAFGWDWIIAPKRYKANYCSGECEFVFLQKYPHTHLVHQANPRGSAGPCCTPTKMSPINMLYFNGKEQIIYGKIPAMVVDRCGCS
Method: (§1) The kinetic parameters of anti-latent myostatin antibodies against human, cynomolgus monkey (cyno), and mouse latent myostatin were assessed at 37° C. at pH7.4 using a BIACORE® T200 instrument (GE Healthcare). ProA/G (Pierce) was immobilized onto all flow cells of a CM4 chip using amine coupling kit (GE Healthcare). Anti-latent myostatin antibody and analytes were prepared in ACES pH7.4 (20 mM ACES, 150 mM NaCl, 1.2 mM CaCl₂), 0.05% TWEEN® 20, 0.005% NaN₃). […] Then human, cyno, or mouse latent myostatin was injected at 3.125 to 50 nM prepared by two-fold serial dilution, followed by dissociation. The sensor surface was regenerated with 25 mM NaOH. Kinetic parameters were determined by processing and fitting the data to a 1:1 binding model using BIACORE® T200 Evaluation software, version 2.0 (GE Healthcare).
(§2) All experimental settings were the same as in Example 7, except that measurements were also performed in ACES pH5.8 buffer in addition to ACES pH7.4 condition. Some antibodies were only measured against human latent myostatin. Antibody capture level was aimed at 185 RU and 18.5 RU, for avidity and affinity assay, respectively. Kinetic parameters were determined using 1:1 Binding fitting using BIACORE® T200 Evaluation software, version 2.0 (GE Healthcare).

[1] = biological target: T2, Cynomolgus monkey latent myostatin (cynomolgus monkey, UniProt Q95J86 25-266; Q95J86 267-375)
T2 construct: signal 1-24; also called Cyno latent myostatin
T2 sequence 1: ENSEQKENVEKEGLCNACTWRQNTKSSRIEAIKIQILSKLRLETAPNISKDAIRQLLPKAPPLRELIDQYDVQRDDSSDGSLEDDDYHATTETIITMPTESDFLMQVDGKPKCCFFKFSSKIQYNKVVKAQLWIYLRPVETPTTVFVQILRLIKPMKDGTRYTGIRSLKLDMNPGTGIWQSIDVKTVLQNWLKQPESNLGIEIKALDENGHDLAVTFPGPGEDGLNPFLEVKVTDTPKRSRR
T2 sequence 2: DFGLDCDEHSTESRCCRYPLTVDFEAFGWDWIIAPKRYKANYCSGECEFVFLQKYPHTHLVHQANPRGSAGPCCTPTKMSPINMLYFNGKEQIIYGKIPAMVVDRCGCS
Method: as §1, §2

Mouse latent myostatin = biological target: T3, Mouse latent myostatin (mouse, UniProt O08689 26-267; O08689 268-376)
T3 construct: signal 1-24
T3 sequence 1: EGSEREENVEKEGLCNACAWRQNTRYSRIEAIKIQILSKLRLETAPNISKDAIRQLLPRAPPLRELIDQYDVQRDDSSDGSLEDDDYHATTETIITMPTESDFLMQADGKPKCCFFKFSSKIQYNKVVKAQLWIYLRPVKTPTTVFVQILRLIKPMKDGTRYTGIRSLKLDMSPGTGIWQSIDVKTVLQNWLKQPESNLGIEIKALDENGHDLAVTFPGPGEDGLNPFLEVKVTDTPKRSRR
T3 sequence 2: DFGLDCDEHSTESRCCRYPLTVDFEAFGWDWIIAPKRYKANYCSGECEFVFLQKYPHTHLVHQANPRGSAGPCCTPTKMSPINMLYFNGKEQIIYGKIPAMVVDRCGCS
Method: as §1, §2

- Kd (Human latent myostatin): 0.23 nM
- koff (Human latent myostatin): 0.000245 s⁻¹
- kon (Human latent myostatin): 1.07e+06 M⁻¹ s⁻¹
- Kd [1]: 0.209 nM
- koff [1]: 0.000213 s⁻¹
- kon [1]: 1.02e+06 M⁻¹ s⁻¹
- Kd (Mouse latent myostatin): 0.122 nM
- koff (Mouse latent myostatin): 0.00016 s⁻¹
- kon (Mouse latent myostatin): 1.31e+06 M⁻¹ s⁻¹
B1: MS_M103205H000-SG1/M103202LO00-SK1 (antibody, human IgG1, kappa, V domains shown)
VH: QVTLKESGPVLVKPTETLTLTCTVSGIDLSSYDISWVRQAPGKGLEWVGIISYAGSTYYASWAKGRLTISKDTSKNQVVLTMTNMDPVDTATYYCARGVPAYSTGGDLWGQGTLVTVSS
VL: DIVMTQSPATLSLSPGERATLSCQSSQSVYDNNWLSWFQQKPGQPPKLLIYWASTLASGVPSRFSGSGSGTDFTLTISSLQPEDAATYYCAGGYGGGLYAFGQGTKVEIKR
notes: Humanized MST1032, not pH-dependent; also called MS1032LO00-SG1; Ab001
